For assay [1], the target named is T1, human FcγRIIb on cells (transfected HEK293T cells; primary human B cells) (human, UniProt P31994 43-310).
T1 construct: whole, on cells; also called CD32b
T1 sequence (looked up): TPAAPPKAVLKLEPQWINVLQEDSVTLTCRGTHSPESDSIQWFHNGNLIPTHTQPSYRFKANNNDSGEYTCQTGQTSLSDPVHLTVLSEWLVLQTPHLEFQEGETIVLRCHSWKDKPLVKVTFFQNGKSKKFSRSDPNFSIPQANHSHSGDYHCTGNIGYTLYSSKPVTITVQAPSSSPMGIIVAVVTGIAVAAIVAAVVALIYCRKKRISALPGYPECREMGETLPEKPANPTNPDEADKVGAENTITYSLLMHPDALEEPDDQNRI
The experiment in a line: flow cytometry on FcγRIIb-transfected 293T cells [top left panel]. The protocol:
(§1) In order to validate the Biacore data and evaluate receptor binding of the variants on the cell surface, binding of select antibodies to cells expressing FcγRIIb was measured. […] HEK293T cells in DMEM with 10% FBS were transfected with human FcγRIIb cDNA in pCMV6 expression vector (Origene Technologies, Rockville, Md.), cultured for 3 days, harvested, washed twice in PBS, resuspended in PBS with 0.1% BSA (PBS/BSA), and aliquoted at 2×10^5 cells per well into 96-well microtiter plates. Fc variant antibodies were serially diluted in PBS/BSA then added to the cells and incubated with mixing for 1 h at room temperature. After extensive washing with PBS/BSA, phycoerythrin (PE)-labeled anti-human-Fab-specific goat F(ab′)2 fragment was added for detection. Cells were incubated for 30 min at room temperature, washed, and resuspended in PBS/BSA. Binding was evaluated using a FACSCanto II flow cytometer (BD Biosciences, San Jose, Calif.), and the mean fluorescence intensity (MFI) was plotted as a function of antibody concentration using Graph Pad Prism software (GraphPad Software, San Diego, Calif.) from which half-maximal binding (EC50) values were determined by sigmoidal dose response modeling.
(In general: Flow cytometry measures light scatter and fluorescence of single cells or particles in a stream.)

A further assay addresses T2, mFcγRIV.
T2 construct: also called mouse FcγRIV; not shown: C-terminal His and GST tags (named only on our card)
T2 chain: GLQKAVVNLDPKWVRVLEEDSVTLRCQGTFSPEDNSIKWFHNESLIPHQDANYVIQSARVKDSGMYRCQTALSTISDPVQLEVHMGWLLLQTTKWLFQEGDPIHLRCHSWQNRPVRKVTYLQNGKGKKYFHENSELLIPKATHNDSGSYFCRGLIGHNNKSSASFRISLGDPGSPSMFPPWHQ
The experiment in a line: SPR.

The target of the next assay is T3, cynoFcγRIIb (Macaca fascicularis, UniProt A0A140HDP4).
T3 construct: extracellular region, C-terminal His- and GST-tag; also called cynomolgus monkey FcγRIIb
T3 sequence (receptor extracellular region): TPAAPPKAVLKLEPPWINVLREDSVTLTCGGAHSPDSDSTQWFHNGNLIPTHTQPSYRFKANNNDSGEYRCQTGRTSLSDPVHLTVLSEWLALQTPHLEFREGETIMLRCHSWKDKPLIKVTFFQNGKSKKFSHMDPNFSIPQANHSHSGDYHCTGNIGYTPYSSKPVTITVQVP
The experiment in a line: SPR. On the technique in general: In SPR one partner is held on a chip, and binding of the other changes the refractive index at the surface.

The target of a further assay is T4, cynoFcγRIIIa (Macaca fascicularis, UniProt Q8SPW2).
T4 construct: extracellular region, C-terminal His- and GST-tag; also called cynomolgus monkey FcγRIIIa
T4 sequence (Q8SPW2 17-208): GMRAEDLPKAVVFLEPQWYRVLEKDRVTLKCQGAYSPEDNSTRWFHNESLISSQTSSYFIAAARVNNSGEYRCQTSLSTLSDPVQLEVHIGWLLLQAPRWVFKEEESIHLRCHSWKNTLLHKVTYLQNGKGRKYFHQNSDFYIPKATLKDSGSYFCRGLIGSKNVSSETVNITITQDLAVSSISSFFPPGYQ
Nature of the assay: SPR.

A further assay addresses T5, mFcγRIIb (Mus musculus, UniProt P08101).
T5 construct: extracellular region, C-terminal His- and GST-tag; also called mouse FcγRII
T5 sequence (receptor extracellular region, looked up): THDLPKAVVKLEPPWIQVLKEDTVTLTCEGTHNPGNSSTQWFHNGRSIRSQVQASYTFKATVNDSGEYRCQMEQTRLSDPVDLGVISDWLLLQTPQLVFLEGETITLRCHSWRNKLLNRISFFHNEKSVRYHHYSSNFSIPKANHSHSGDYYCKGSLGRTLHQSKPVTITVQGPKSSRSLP
The experiment in a line: SPR.

Assay [2] addresses T6, human FcγRIIb receptor protein (R&D Systems) (human, UniProt P31994 46-217).
T6 construct: Bought protein injected over captured antibody in Biacore; also called CD32b
T6 sequence (looked up): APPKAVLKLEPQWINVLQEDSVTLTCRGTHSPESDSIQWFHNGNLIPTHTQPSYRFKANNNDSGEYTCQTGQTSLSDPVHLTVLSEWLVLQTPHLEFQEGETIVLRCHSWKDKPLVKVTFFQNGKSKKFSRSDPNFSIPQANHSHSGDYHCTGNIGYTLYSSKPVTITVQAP
Nature of the assay: Biacore SPR, Kd(native IgG1)/Kd(variant).

The target of assay [3] is T1, human FcγRIIb on cells (transfected …). Nature of the assay: flow cytometry on FcγRIIb-transfected 293T cells [bottom right panel]. The protocol: as §1
The target of assay [4] is T6, human FcγRIIb receptor protein (R&D …). Nature of the assay: Biacore SPR, antibody captured on protein A/G chip, FcγR injected.
Assay [5] has as its target T7, human FcγRI receptor protein (R&D Systems) (human, UniProt P12314 16-288).
T7 construct: also called soluble FcγRI; solFcγRI
The experiment in a line: SPR.

A word on the EC50 (read off the curve): it is the concentration needed to bring the measured effect to its halfway point. High values mean a less potent agent, low ones a more potent agent. Broadly, the Kd is the constant that tells how readily two partners part at equilibrium.
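Wherever Fold vs WT IgG1 (off-rate) is given: fold improvement over WT IgG1 so higher means slower dissociation than WT.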

T7 sequence (P12314 16-288 limits assumed): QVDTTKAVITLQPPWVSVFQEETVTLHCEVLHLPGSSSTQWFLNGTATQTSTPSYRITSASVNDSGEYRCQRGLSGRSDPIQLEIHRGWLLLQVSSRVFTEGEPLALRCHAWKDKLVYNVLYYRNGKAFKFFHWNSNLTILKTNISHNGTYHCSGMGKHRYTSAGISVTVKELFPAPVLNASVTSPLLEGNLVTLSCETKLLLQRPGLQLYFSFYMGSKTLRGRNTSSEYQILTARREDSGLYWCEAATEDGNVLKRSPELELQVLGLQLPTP

B1: anti-CD19 antibody HuAM4G7 IgG1 S267E (antibody)
heavy: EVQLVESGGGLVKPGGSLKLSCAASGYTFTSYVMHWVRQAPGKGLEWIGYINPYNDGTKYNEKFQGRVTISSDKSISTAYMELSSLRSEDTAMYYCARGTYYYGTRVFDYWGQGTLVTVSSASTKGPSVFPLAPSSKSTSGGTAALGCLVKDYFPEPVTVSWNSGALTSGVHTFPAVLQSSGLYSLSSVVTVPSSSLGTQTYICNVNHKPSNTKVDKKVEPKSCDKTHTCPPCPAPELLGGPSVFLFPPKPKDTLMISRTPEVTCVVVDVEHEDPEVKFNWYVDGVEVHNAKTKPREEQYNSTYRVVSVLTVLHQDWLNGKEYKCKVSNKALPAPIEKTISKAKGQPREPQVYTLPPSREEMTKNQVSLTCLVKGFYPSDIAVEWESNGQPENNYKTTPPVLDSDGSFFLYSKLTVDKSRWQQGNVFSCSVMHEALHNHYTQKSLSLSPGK
light: DIVMTQSPATLSLSPGERATLSCRSSKSLQNVNGNTYLYWFQQKPGQSPQLLIYRMSNLNSGVPDRFSGSGSGTEFTLTISSLEPEDFAVYYCMQHLEYPITFGAGTKLEIKRTVAAPSVFIFPPSDEQLKSGTASVVCLLNNFYPREAKVQWKVDNALQSGNSQESVTEQDSKDSTYSLSSTLTLSKADYEKHKVYACEVTHQGLSSPVTKSFNRGEC
notes: Positions in EU numbering; copies: 2 + 2
In the case of B1, the “EC50 (read off the curve)” value is roughly 0.01 µg/mL in assay [1] and roughly 0.02 µg/mL in assay [3]. Further, the “Fold vs WT IgG1 (off-rate)” value with mFcγRIV was 0.77 fold; with cynoFcγRIIb, 1.09 fold; with cynoFcγRIIIa it was 0.515 fold; in the assay with mFcγRIIb, 1.44 fold. In addition, the “fold affinity relative to native IgG1” value in [2] came to 20.4 fold. Besides, the figures for the Kd in assay [4] and in [5] were 71.9 nM and 0.117 nM, respectively. Further, the “Fold vs WT IgG1” value in [5] stood at 2.81 fold.

For the origin of these results see patent US20130315910A1 (Xencor, published 2013).
